The data set relates to Escherichia coli TOP10. As to the kind of experiment: shrunken log2 fold change of peptide-encoding DNA abundance (4.5 h post-induction vs induction); higher = less antimicrobial activity (less host growth inhibition). The note with it: time post-induction: 4.5 h; library: site-saturation at positions 5, 18, 19, 20.
Regarding RRIRIRPPRLPRPRPRPAFMPRP, the “shrunken log2 fold change” value was -0.3. Turning to RRIRSRPPRLPRPRPRPFVIPRP, the “shrunken log2 fold change” value is -0.206. Next, RRIRMRPPRLPRPRPRPMNCPRP: -0.00776; RRIRMRPPRLPRPRPRPILTPRP: 0.168. In the case of RRIRNRPPRLPRPRPRPVCHPRP, the “shrunken log2 fold change” value was -0.169. Regarding RRIRRRPPRLPRPRPRPPTIPRP, the “shrunken log2 fold change” value turned out to be 0.324. Next, RRIRQRPPRLPRPRPRPVNVPRP: 0.0398; RRIRARPPRLPRPRPRPMSLPRP: -0.229; RRIRSRPPRLPRPRPRPGTQPRP: 0.00256.

RRIRSRPPRLPRPRPRPKVMPRP: the “shrunken log2 fold change” value is 0.0101. Next, RRIRGRPPRLPRPRPRPCGKPRP: 0.0957; RRIRGRPPRLPRPRPRPDRIPRP: 0.286; RRIRLRPPRLPRPRPRPGGLPRP: 0.097. Then RRIRKRPPRLPRPRPRPCCAPRP, with 1.3; and RRIRKRPPRLPRPRPRPCINPRP, with -0.162; and RRIRQRPPRLPRPRPRPHVPPRP, with -0.0247. Then RRIRQRPPRLPRPRPRPAPSPRP, with 0.492; and RRIRGRPPRLPRPRPRPHYPPRP, with -0.222; and RRIRGRPPRLPRPRPRPHCKPRP, with 0.0392. Take RRIRVRPPRLPRPRPRPVWCPRP: the “shrunken log2 fold change” value is 0.423. For RRIRMRPPRLPRPRPRPPVGPRP, the “shrunken log2 fold change” value worked out at 1.06. Then RRIRTRPPRLPRPRPRPITLPRP, with -0.162; and RRIRQRPPRLPRPRPRPHVIPRP, with -0.186. In the case of RRIRVRPPRLPRPRPRPHISPRP, the “shrunken log2 fold change” value amounted to 0.0648.

For RRIRRRPPRLPRPRPRPLAEPRP, the “shrunken log2 fold change” value is 0.654. As for RRIRLRPPRLPRPRPRPIARPRP, the “shrunken log2 fold change” value was -0.0553. Next, RRIRQRPPRLPRPRPRPVRCPRP: 0.841; RRIRFRPPRLPRPRPRPFMHPRP: -0.147. Take RRIRVRPPRLPRPRPRPRANPRP: the “shrunken log2 fold change” value came to 0.384.

Take RRIRHRPPRLPRPRPRPIFVPRP: the “shrunken log2 fold change” value is -0.358. Next, RRIRTRPPRLPRPRPRPSPSPRP: -0.0444. Then RRIRWRPPRLPRPRPRPVVIPRP, with -0.101; and RRIRQRPPRLPRPRPRPDTCPRP, with 0.0121. Next, RRIRRRPPRLPRPRPRPDHSPRP: 0.0322; RRIRCRPPRLPRPRPRPHLPPRP: -0.195; RRIRERPPRLPRPRPRPWYHPRP: -0.588.

As to RRIRDRPPRLPRPRPRPEYMPRP, the “shrunken log2 fold change” value is -0.00941. As for RRIRLRPPRLPRPRPRPARAPRP, the “shrunken log2 fold change” value was found to be 0.268.

As for RRIRDRPPRLPRPRPRPWHQPRP, the “shrunken log2 fold change” value was -0.0511. Then RRIRIRPPRLPRPRPRPMILPRP, with -0.131; and RRIRVRPPRLPRPRPRPGKPPRP, with 0.0464; and RRIRDRPPRLPRPRPRPASWPRP, with 0.805. Next, RRIRSRPPRLPRPRPRPRWGPRP: 0.228; RRIRKRPPRLPRPRPRPISWPRP: -0.0574; RRIRFRPPRLPRPRPRPNGTPRP: -0.419. With RRIRHRPPRLPRPRPRPAHLPRP, the “shrunken log2 fold change” value came out at 0.0167.

For the sequence RRIRYRPPRLPRPRPRPCFRPRP, the “shrunken log2 fold change” value was -0.266. Then RRIRQRPPRLPRPRPRPGSMPRP, with -0.174; and RRIRNRPPRLPRPRPRPHVIPRP, with -0.205. Next, RRIRDRPPRLPRPRPRPTYVPRP: -0.0733. For RRIRHRPPRLPRPRPRPLGCPRP, the “shrunken log2 fold change” value was 0.116. Consider RRIRSRPPRLPRPRPRPPCDPRP, for which the “shrunken log2 fold change” value amounted to 0.0563. Next, RRIRIRPPRLPRPRPRPLFFPRP: -0.374; RRIRHRPPRLPRPRPRPWDQPRP: 0.0769. Next, RRIRQRPPRLPRPRPRPCTNPRP: -0.359; RRIRYRPPRLPRPRPRPDRDPRP: -0.109. Next, RRIRDRPPRLPRPRPRPVFIPRP: -0.476; RRIRCRPPRLPRPRPRPNPFPRP: -0.024; RRIRNRPPRLPRPRPRPWRYPRP: -0.0121. For RRIRIRPPRLPRPRPRPNNWPRP, the “shrunken log2 fold change” value is -0.535. Next, RRIRARPPRLPRPRPRPMGEPRP: 0.1; RRIRSRPPRLPRPRPRPVTMPRP: -0.312; RRIRFRPPRLPRPRPRPRVYPRP: -0.217. Next, RRIRIRPPRLPRPRPRPIIMPRP: -0.34; RRIRVRPPRLPRPRPRPDKFPRP: 0.0677; RRIRKRPPRLPRPRPRPLNHPRP: -0.0528. Next, RRIRDRPPRLPRPRPRPSYHPRP: -0.835. RRIRVRPPRLPRPRPRPNYNPRP: the “shrunken log2 fold change” value is -0.76. Next, RRIRNRPPRLPRPRPRPIAFPRP: -0.111; RRIRPRPPRLPRPRPRPDWTPRP: -0.063; RRIRARPPRLPRPRPRPRRGPRP: 0.759. Then RRIRKRPPRLPRPRPRPMHLPRP, with -0.0647; and RRIRSRPPRLPRPRPRPHVLPRP, with -0.54; and RRIRHRPPRLPRPRPRPYIAPRP, with -0.496. Then RRIRIRPPRLPRPRPRPTAFPRP, with -0.532; and RRIRMRPPRLPRPRPRPCRHPRP, with -0.0252; and RRIRERPPRLPRPRPRPWSHPRP, with -0.168. As for RRIRFRPPRLPRPRPRPRPQPRP, the “shrunken log2 fold change” value came to 0.684.

For RRIRYRPPRLPRPRPRPNIVPRP, the “shrunken log2 fold change” value was -0.224. On to RRIRPRPPRLPRPRPRPNKVPRP, for which the “shrunken log2 fold change” value is -0.1.

With RRIRHRPPRLPRPRPRPPLHPRP, the “shrunken log2 fold change” value was found to be 0.0208. Then RRIRPRPPRLPRPRPRPTAVPRP, with 0.362; and RRIRVRPPRLPRPRPRPAAHPRP, with 0.0619; and RRIRHRPPRLPRPRPRPQPYPRP, with -1.53. RRIRSRPPRLPRPRPRPDGLPRP: the “shrunken log2 fold change” value turned out to be 0.0397. Next, RRIRVRPPRLPRPRPRPYRRPRP: -0.0654; RRIRMRPPRLPRPRPRPEIQPRP: 0.0386; RRIRARPPRLPRPRPRPIFDPRP: 0.0844. Then RRIRHRPPRLPRPRPRPPAHPRP, with 0.0763; and RRIRRRPPRLPRPRPRPNCKPRP, with 0.155. Next, RRIRQRPPRLPRPRPRPLTTPRP: 0.106; RRIRDRPPRLPRPRPRPRKGPRP: 0.0785. Consider RRIRIRPPRLPRPRPRPCRNPRP, for which the “shrunken log2 fold change” value is -0.604.

With RRIRWRPPRLPRPRPRPTCTPRP, the “shrunken log2 fold change” value was 0.441. Consider RRIRARPPRLPRPRPRPSRCPRP, for which the “shrunken log2 fold change” value turned out to be 0.228.

Take RRIRNRPPRLPRPRPRPRIYPRP: the “shrunken log2 fold change” value is -0.0955. Next, RRIRGRPPRLPRPRPRPCIYPRP: 0.0369; RRIRCRPPRLPRPRPRPTDDPRP: 2.22. Then RRIRPRPPRLPRPRPRPHGCPRP, with 0.0229; and RRIRMRPPRLPRPRPRPCTFPRP, with -0.209. For the sequence RRIRCRPPRLPRPRPRPDMRPRP, the “shrunken log2 fold change” value came out at 0.018. Then RRIRERPPRLPRPRPRPIGEPRP, with 0.128; and RRIRKRPPRLPRPRPRPTFYPRP, with 0.11. Next, RRIRERPPRLPRPRPRPEIWPRP: 0.417; RRIRERPPRLPRPRPRPPHDPRP: 0.0906. Then RRIRHRPPRLPRPRPRPYLEPRP, with -0.0394; and RRIRMRPPRLPRPRPRPNDKPRP, with 0.145; and RRIRLRPPRLPRPRPRPMFHPRP, with -0.681. For RRIRHRPPRLPRPRPRPIAAPRP, the “shrunken log2 fold change” value was -0.0333. Next, RRIRFRPPRLPRPRPRPLEAPRP: 0.0974. Then RRIRPRPPRLPRPRPRPCTEPRP, with 0.0737; and RRIRVRPPRLPRPRPRPETNPRP, with 0.0778. Then RRIRDRPPRLPRPRPRPSLPPRP, with -0.00636; and RRIRCRPPRLPRPRPRPFYFPRP, with -0.593; and RRIRVRPPRLPRPRPRPDKCPRP, with -0.0495. On to RRIRVRPPRLPRPRPRPYDTPRP, for which the “shrunken log2 fold change” value is 1.6.

Turning to RRIRVRPPRLPRPRPRPMCEPRP, the “shrunken log2 fold change” value worked out at 0.0553. Then RRIRTRPPRLPRPRPRPPTDPRP, with 0.0638; and RRIRKRPPRLPRPRPRPERLPRP, with 0.209; and RRIRTRPPRLPRPRPRPPKHPRP, with 0.157. Next, RRIRYRPPRLPRPRPRPWYGPRP: -0.258. Next, RRIRNRPPRLPRPRPRPRTWPRP: 0.415; RRIRYRPPRLPRPRPRPTVHPRP: -1.3; RRIRYRPPRLPRPRPRPKTQPRP: 0.0853. With RRIRTRPPRLPRPRPRPFESPRP, the “shrunken log2 fold change” value turned out to be 0.0313.

These data come from the supplement of paper PMC9112550, “Optimization of the antimicrobial peptide Bac7 by deep mutational scanning” (BMC Biology, 2022).
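Further: peptides expressed intracellularly from a pBAD plasmid library in pooled LB shake-flask culture, induced with 0.3% L-arabinose, DNA abundance read by NGS, three biological replicates, DESeq2 with apeglm shrinkage.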
